Measured values from patent US20130184160.

Experiments:
Assay in all cases: filter
Fetuin = biological target: T1, Fetuin (UniProt P12763); settings: T positions from B-TTP (quinoline-8-boronic acid linked at 5-position of dU via triazole), outside primer; specificity control
T1 sequence: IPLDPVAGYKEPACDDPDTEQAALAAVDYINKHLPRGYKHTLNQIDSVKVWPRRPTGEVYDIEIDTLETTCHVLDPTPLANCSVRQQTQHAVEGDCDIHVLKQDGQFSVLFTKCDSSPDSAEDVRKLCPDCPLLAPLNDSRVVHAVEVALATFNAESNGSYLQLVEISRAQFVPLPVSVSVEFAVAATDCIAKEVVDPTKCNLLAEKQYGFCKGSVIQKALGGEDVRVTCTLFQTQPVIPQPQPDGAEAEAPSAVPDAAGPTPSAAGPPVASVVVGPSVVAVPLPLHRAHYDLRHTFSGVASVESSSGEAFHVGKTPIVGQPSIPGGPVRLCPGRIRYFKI

[1] = biological target: Alpha-1 acid glycoprotein (UniProt P02763); settings: T positions from B-TTP (quinoline-8-boronic acid linked at 5-position of dU via triazole), outside primer; specificity control
Chain of Alpha-1 acid glycoprotein (P02763 19-201): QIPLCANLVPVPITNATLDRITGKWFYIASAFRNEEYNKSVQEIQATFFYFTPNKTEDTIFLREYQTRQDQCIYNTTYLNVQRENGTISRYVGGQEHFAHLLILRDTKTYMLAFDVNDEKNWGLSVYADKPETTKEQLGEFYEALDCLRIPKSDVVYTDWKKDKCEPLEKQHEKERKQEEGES

[2] = tested on: Fibrinogen (glycosylated, untreated), P02671-2+P02675+P02679; settings: T positions from B-TTP; average Kd of pool after round 13
Chain of Fibrinogen (glycosylated, untreated), P02671-2+P02675+P02679 (P02671 other isoform, or with tags, fused parts or gaps, chain 1 of 3): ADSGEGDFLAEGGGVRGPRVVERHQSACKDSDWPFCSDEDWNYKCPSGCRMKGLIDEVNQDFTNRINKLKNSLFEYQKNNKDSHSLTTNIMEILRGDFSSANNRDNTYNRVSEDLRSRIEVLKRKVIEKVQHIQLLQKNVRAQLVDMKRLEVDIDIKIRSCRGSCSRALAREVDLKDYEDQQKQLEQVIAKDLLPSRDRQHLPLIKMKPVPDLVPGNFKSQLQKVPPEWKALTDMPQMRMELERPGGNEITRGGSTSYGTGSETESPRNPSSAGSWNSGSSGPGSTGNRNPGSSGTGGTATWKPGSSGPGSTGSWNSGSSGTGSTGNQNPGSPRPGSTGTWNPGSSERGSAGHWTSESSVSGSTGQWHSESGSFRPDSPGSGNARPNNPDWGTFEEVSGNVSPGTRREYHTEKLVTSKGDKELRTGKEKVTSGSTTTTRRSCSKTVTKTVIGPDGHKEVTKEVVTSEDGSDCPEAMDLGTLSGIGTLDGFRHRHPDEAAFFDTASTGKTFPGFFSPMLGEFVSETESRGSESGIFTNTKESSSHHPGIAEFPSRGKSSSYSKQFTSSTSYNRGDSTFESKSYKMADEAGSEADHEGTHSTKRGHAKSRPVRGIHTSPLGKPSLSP
Chain of Fibrinogen (glycosylated, untreated), P02671-2+P02675+P02679 (P02675 31-491, chain 2 of 3): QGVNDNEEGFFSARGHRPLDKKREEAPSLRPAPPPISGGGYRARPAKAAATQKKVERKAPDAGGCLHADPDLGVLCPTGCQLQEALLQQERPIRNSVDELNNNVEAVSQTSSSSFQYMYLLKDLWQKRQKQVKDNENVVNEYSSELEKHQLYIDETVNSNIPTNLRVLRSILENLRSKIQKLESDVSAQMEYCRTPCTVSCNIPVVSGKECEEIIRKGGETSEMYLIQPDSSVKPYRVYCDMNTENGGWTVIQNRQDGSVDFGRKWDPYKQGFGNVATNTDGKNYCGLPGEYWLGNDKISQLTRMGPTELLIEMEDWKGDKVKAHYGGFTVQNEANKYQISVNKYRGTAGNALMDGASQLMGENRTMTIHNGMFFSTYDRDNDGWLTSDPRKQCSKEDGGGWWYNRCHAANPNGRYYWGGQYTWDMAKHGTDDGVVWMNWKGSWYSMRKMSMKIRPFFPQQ
Chain of Fibrinogen (glycosylated, untreated), P02671-2+P02675+P02679 (P02679 27-453, chain 3 of 3): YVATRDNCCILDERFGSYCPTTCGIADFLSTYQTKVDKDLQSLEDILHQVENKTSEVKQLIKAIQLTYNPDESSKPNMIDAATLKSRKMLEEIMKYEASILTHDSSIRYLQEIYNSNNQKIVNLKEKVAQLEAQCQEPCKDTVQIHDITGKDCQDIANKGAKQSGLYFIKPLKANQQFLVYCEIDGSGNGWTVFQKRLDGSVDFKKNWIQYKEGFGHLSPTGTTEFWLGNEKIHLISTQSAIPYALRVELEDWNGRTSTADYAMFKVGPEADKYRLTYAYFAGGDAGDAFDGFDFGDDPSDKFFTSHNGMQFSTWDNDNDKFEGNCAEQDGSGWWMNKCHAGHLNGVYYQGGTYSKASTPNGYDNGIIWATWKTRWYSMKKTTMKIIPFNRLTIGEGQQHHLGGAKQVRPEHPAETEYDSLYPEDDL

Sequence	Kd (Fetuin) [µM]	Kd [1] [µM]	Kd [2] [µM]
CCTTCGTTGTCTGCCTTCGTAGCGGATCGAATTACGCGTTAACGGCAACCGATAACGGGACCGATTGCACACCCTTCAGAATTCGCACCA [85A B-TTP (114H)]	2.2	0.7	–
CCTTCGTTGTCTGCCTTCGTNNNNNNNNNNNNNNNNNNNNNNNNNNNNNNNNNNNNNNNNNNNNNNNNNNACCCTTCAGAATTCGCACCA [Round 13 fibrinogen pool]	–	–	5
